Measurements reported in US20230383012A1 (published 2023).

What was measured:
XPL2-BC-8F4-hIgG1 = experiment: Biacore
XPL2-BC-12A11-hIgG1 = experiment: Biacore
XPL2-BC-3A9-hIgG1 = experiment: Biacore
XPL2-BC-5B6-hIgG1 = experiment: Biacore
XPL2-BC-12B9-hIgG1 = experiment: Biacore
XPL2-BC-12A6-hIgG1 = experiment: Biacore
XPL2-BC-1G10-hIgG1 = experiment: Biacore
XPL2-BC-5F2-hIgG1 = experiment: Biacore
XPL2-BC-8H11-hIgG1 = experiment: Biacore
XPL2-BC-16G11-hIgG1 = experiment: Biacore
XPL2-BC-13G1-hIgG1 = experiment: Biacore
XPL2-BC-8G2-hIgG1 = experiment: Biacore
XPL2-BC-5C11-hIgG1 = experiment: Biacore
XPL2-BC-12B12-hIgG1 = experiment: Biacore
XPL2-BC-1E12-hIgG1 = experiment: Biacore
XPL2-BC-6H10-hIgG1 = experiment: Biacore
XPL2-BC-8G5-hIgG1 = experiment: Biacore
XPL2-BC-7D3-hIgG1 = experiment: Biacore
XPL2-BC-12B7-hIgG1 = experiment: Biacore
XPL2-BC-7B10-hIgG1 = experiment: Biacore
XPL2-BC-9H4-hIgG1 = experiment: Biacore
XPL2-BC-10H5-hIgG1 = experiment: Biacore
XPL2-BC-7D1-hIgG1 = experiment: Biacore
XPL2-BC-8H8-hIgG1 = experiment: Biacore
XPL2-BC-7E9-hIgG1 = experiment: Biacore
XPL2-BC-12B2-hIgG1 = experiment: Biacore
XPL2-BC-5F1-hIgG1 = experiment: Biacore
Human PDL1 = Human PDL1 (human, UniProt Q9NZQ7 19-238); experiment: Biacore; EXP1
Cyno PDL1 = experiment: Biacore; EXP1
human CD28 antigen = human CD28 antigen (human, UniProt P10747 19-152); experiment: Octet; VHVL

B1: PDL2 (ligand)
chain: LFTVTVPKELYIIEHGSNVTLECNFDTGSHVNLGAITASLQKVENDTSPHRERATLLEEQLPLGKASFHIPQVQVRDEGQYQCIIIYGVAWDYKYLTLKVKASYRKINTHILKVPETDEVELTCQATGYPLAEVSWPNVSVPANTSHSRTPEGLYQVTSVLRLKPPPGRNFSCVFWNTHVRELTLASIDLQSQMEPRTHPT
XPL2-BC-8F4-hIgG1
  Kd: 7.13 nM
XPL2-BC-12A11-hIgG1
  Kd: 21.8 nM
XPL2-BC-3A9-hIgG1
  Kd: 192 nM
XPL2-BC-5B6-hIgG1
  Kd: 0.765 nM
XPL2-BC-12B9-hIgG1
  Kd: 5.88 nM
XPL2-BC-12A6-hIgG1
  Kd: 303 nM
XPL2-BC-1G10-hIgG1
  Kd: 5.87 nM
XPL2-BC-5F2-hIgG1
  Kd: 11.6 nM
XPL2-BC-8H11-hIgG1
  Kd: 0.525 nM
XPL2-BC-16G11-hIgG1
  Kd: 0.491 nM
XPL2-BC-13G1-hIgG1
  Kd: 5.1 nM
XPL2-BC-8G2-hIgG1
  Kd: 0.39 nM
XPL2-BC-5C11-hIgG1
  Kd: 1.77 nM
XPL2-BC-12B12-hIgG1
  Kd: 73.7 nM
XPL2-BC-1E12-hIgG1
  Kd: 80.7 nM
XPL2-BC-6H10-hIgG1
  Kd: 6.02 nM
XPL2-BC-8G5-hIgG1
  Kd: 1.09 nM
XPL2-BC-7D3-hIgG1
  Kd: 1.49 nM
XPL2-BC-12B7-hIgG1
  Kd: 8.44 nM
XPL2-BC-7B10-hIgG1
  Kd: 1.77 nM
XPL2-BC-9H4-hIgG1
  Kd: 73.2 nM
XPL2-BC-10H5-hIgG1
  Kd: 64.9 nM
XPL2-BC-7D1-hIgG1
  Kd: 5.66 nM
XPL2-BC-8H8-hIgG1
  Kd: 3.75 nM
XPL2-BC-7E9-hIgG1
  Kd: 0.25 nM
XPL2-BC-12B2-hIgG1
  Kd: 15.1 nM
XPL2-BC-5F1-hIgG1
  Kd: 12.5 nM

B2: XENP 37559 (H1L1) (bispecific antibody)
chain 1: EVQLLESGGGLVQPGGSLRLSCAASGFTFSSYDMSWVRQAPGKRLEWVSTISSGGSFTHYPDSVKGRFTISRDNSKNTLYLQMNSLRAEDTAVYYCVRRSGDWYFDVWGAGTTVTVSSASTKGPSVFPLAPSSKSTSGGTAALGCLVKDYFPEPVTVSWNSGALTSGVHTFPAVLQSSGLYSLSSVVTVPSSSLGTQTYICNVNHKPSDTKVDKKVEPKSCDKTHTCPPCPAPPVAGPSVFLFPPKPKDTLMISRTPEVTCVVVDVKHEDPEVKFNWYVDGVEVHNAKTKPREEEYNSTYRVVSVLTVLHQDWLNGKEYKCKVSNKALPAPIEKTISKAKGQPREPQVYTLPPSREEMTKNQVSLTCDVSGFYPSDIAVEWESDGQPENNYKTTPPVLDSDGSFFLYSKLTVDKSRWEQGDVFSCSVMHEALHNHYTQKSLSLSPGK
chain 2: not shown
chain 3: EIVLTQSPGTLSLSPGERATLSCRVSSSISSSNLHWYQQKPGQSPRPLIYGTSNLASGVPVRFSGSGSGTDYTLTISRLEPEDFAVYYCQQWSSYPLYTFGGGTKVEIKRTVAAPSVFIFPPSDEQLKSGTASVVCLLNNFYPREAKVQWKVDNALQSGNSQESVTEQDSKDSTYSLSSTLTLSKADYEKHKVYACEVTHQGLSSPVTKSFNRGEC
Human PDL1
  Kd: 2.6 nM
Cyno PDL1
  Kd: 2.2 nM

B3: H1.1_L1.71 (antibody, V domains shown)
VH: EVQLLESGGGLVQPGGSLRLSCAASGFTFPSRDMSWVRQAPGKRLEWVSTISSGGSFTHYPDSVKGRFTISRDNSKNTLYLQMNSLRAEDTAVYYCVRRSGDWYFDVWGAGTTVTVSS
VL: EIVLTQSPGTLSLSPGERATLSCRVSSSIQSTNLHWYQQKPGQSPRPLIYGTSTLATGVPVRFSGSGSGTDYTLTISRLEPEDFAVYYCQQWSSYPLYTFGGGTKVEIK
Human CD28 antigen
  Kd: 96 nM

B4: H1.1_L1 (antibody, V domains shown)
VH: EVQLLESGGGLVQPGGSLRLSCAASGFTFPSRDMSWVRQAPGKRLEWVSTISSGGSFTHYPDSVKGRFTISRDNSKNTLYLQMNSLRAEDTAVYYCVRRSGDWYFDVWGAGTTVTVSS
VL: EIVLTQSPGTLSLSPGERATLSCRVSSSISSSNLHWYQQKPGQSPRPLIYGTSNLASGVPVRFSGSGSGTDYTLTISRLEPEDFAVYYCQQWSSYPLYTFGGGTKVEIK
Human CD28 antigen
  Kd: 600 nM

B5: H1_L1.71 (antibody, V domains shown)
VH: EVQLLESGGGLVQPGGSLRLSCAASGFTFSSYDMSWVRQAPGKRLEWVSTISSGGSFTHYPDSVKGRFTISRDNSKNTLYLQMNSLRAEDTAVYYCVRRSGDWYFDVWGAGTTVTVSS
VL: EIVLTQSPGTLSLSPGERATLSCRVSSSIQSTNLHWYQQKPGQSPRPLIYGTSTLATGVPVRFSGSGSGTDYTLTISRLEPEDFAVYYCQQWSSYPLYTFGGGTKVEIK
Human CD28 antigen
  Kd: 180 nM

B6: H1L1 (antibody, V domains shown)
VH: EVQLLESGGGLVQPGGSLRLSCAASGFTFSSYDMSWVRQAPGKRLEWVSTISSGGSFTHYPDSVKGRFTISRDNSKNTLYLQMNSLRAEDTAVYYCVRRSGDWYFDVWGAGTTVTVSS
VL: EIVLTQSPGTLSLSPGERATLSCRVSSSISSSNLHWYQQKPGQSPRPLIYGTSNLASGVPVRFSGSGSGTDYTLTISRLEPEDFAVYYCQQWSSYPLYTFGGGTKVEIK
Human CD28 antigen
  Kd: 1000 nM
